Numbering of substitutions follows the chain as printed. Where “and” joins values, the source holds several entries; their conditions need not be identical. Equal entries are not always repeated. One block for each binder: values may come before it.
Key:
[1] = target: T1, recombinant human IL-5 (human, UniProt P05113 20-134); experiment: SPR, purified Ab on Protein A chip, IL-5 analyte, run 3.2
[2] = target: T1, recombinant human IL-5; experiment: SPR, Ab supernatant on Protein A chip, IL-5 analyte, run 3.2, average of 5
[3] = target: T2, recombinant human IL-5 (human, UniProt P05113 20-134); experiment: Biacore SPR, purified Ab on Protein A chip
[4] = target: T2, recombinant human IL-5; experiment: Biacore SPR, Ab supernatant on Protein A chip
[5] = target: T2, recombinant human IL-5; experiment: Biacore SPR, Ab supernatant on Protein A chip, average of replicates
[6] = target: T3, recombinant human IL-5 (human, UniProt P05113 20-134); experiment: Biacore SPR run 5.1
[7] = target: T3, recombinant human IL-5; experiment: Biacore SPR run 5.1; remark: listed apart in the source
[8] = target: T3, recombinant human IL-5; experiment: Biacore SPR run 5.1; remark: listed apart in the source
[9] = target: T4, recombinant human IL-5 (human, UniProt P05113 20-134); experiment: SPR
[10] = target: T4, recombinant human IL-5; experiment: SPR; remark: listed apart in the source
[11] = target: T4, recombinant human IL-5; experiment: SPR; remark: listed apart in the source
[12] = target: T4, recombinant human IL-5; experiment: SPR; remark: listed apart in the source
[13] = target: T4, recombinant human IL-5; experiment: SPR; remark: listed apart in the source
[14] = target: T4, recombinant human IL-5; experiment: SPR; remark: listed apart in the source
[15] = target: T5, recombinant human IL-5 (human, UniProt P05113 20-134); experiment: SPR Biacore, Ab on Protein A chip, human IL-5 analyte, run 4.1, average
[16] = target: T5, recombinant human IL-5; experiment: SPR Biacore, purified Ab on Protein A chip, human IL-5 analyte, run 4.1
[17] = target: T5, recombinant human IL-5; experiment: SPR Biacore, Ab on Protein A chip, human IL-5 analyte, run 4.1, replicate 1
[18] = target: T5, recombinant human IL-5; experiment: SPR Biacore, Ab on Protein A chip, human IL-5 analyte, run 4.1, replicate 2
[19] = target: T5, recombinant human IL-5; experiment: SPR Biacore, Ab on Protein A chip, human IL-5 analyte, run 4.1, replicate 3
[20] = target: T5, recombinant human IL-5; experiment: SPR Biacore, Ab on Protein A chip, human IL-5 analyte, run 4.1, replicate 4
[21] = target: T5, recombinant human IL-5; experiment: SPR Biacore, Ab on Protein A chip, human IL-5 analyte, run 4.1, replicate 5
[22] = target: T4, recombinant human IL-5; experiment: SPR; remark: listed apart in the source

B1: 3A5.040 (antibody, human IgG4 S228P, lambda)
heavy: not shown
light: SYVLTQPPSVSVAPGQTARITCGGNNIGSKNVYWYQQKPGQAPVLVVHDDSDRPSGIPERFSGSNSGNTATLTISRVEVGDEADYSCQVWDSSSDHVVFGGGTKLTVLGQPKAAPSVTLFPPSSEELQANKATLVCLISDFYPGAVTVAWKADSSPVKAGVETTTPSKQSNNKYAASSYLSLTPEQWKSHRSYSCQVTHEGSTVEKTVAPTECS
Kd [1]: 0.116 nM
koff [1]: 8.25e-05 s⁻¹
kon [1]: 712000 M⁻¹ s⁻¹
Kd [2]: 0.131 nM
koff [2]: 9.07e-05 s⁻¹
kon [2]: 695000 M⁻¹ s⁻¹

B2: 3A5.040 (antibody, human IgG4 S228P, lambda)
heavy: not shown
light: B1 light
Kd [3]: 0.092 nM
koff [3]: 6.63e-05 s⁻¹
kon [3]: 721000 M⁻¹ s⁻¹
Kd [4]: 0.148 nM and 0.149 nM
koff [4]: 0.000103 s⁻¹ and 0.000106 s⁻¹
kon [4]: 696000 M⁻¹ s⁻¹ and 710000 M⁻¹ s⁻¹
Kd [5]: 0.149 nM
koff [5]: 0.000105 s⁻¹
kon [5]: 703000 M⁻¹ s⁻¹

B3: 3A5.040 (antibody, human IgG4 S228P, lambda)
heavy: not shown
light: B1 light
Kd [6]: 0.153 nM
koff [6]: 0.000108 s⁻¹
kon [6]: 707000 M⁻¹ s⁻¹
Kd [7]: 0.186 nM and 0.175 nM and 0.187 nM and 0.177 nM
koff [7]: 0.000122 s⁻¹ and 0.000112 s⁻¹ and 0.000125 s⁻¹ and 0.000117 s⁻¹
kon [7]: 656000 M⁻¹ s⁻¹ and 643000 M⁻¹ s⁻¹ and 667000 M⁻¹ s⁻¹ and 663000 M⁻¹ s⁻¹
Kd [8]: 0.181 nM
koff [8]: 0.000119 s⁻¹
kon [8]: 657000 M⁻¹ s⁻¹

B4: 3A5.040 (antibody, human IgG4 S228P, lambda)
heavy: not shown
light: B1 light
Kd [9]: 0.148 nM
koff [9]: 0.000106 s⁻¹
kon [9]: 717000 M⁻¹ s⁻¹
Kd [10]: 0.16 nM
koff [10]: 0.000115 s⁻¹
kon [10]: 720000 M⁻¹ s⁻¹
Kd [11]: 0.123 nM
koff [11]: 8.96e-05 s⁻¹
kon [11]: 727000 M⁻¹ s⁻¹
Kd [12]: 0.128 nM
koff [12]: 9.21e-05 s⁻¹
kon [12]: 718000 M⁻¹ s⁻¹
Kd [13]: 0.143 nM
koff [13]: 9.95e-05 s⁻¹
kon [13]: 696000 M⁻¹ s⁻¹
Kd [14]: 0.139 nM
koff [14]: 9.91e-05 s⁻¹
kon [14]: 715000 M⁻¹ s⁻¹

B5: 3A5.040 (antibody, human IgG4 S228P, lambda)
heavy: not shown
light: B1 light
Kd [15]: 0.106 nM
koff [15]: 0.000107 s⁻¹
kon [15]: 1.01e+06 M⁻¹ s⁻¹
Kd [16]: 0.103 nM
koff [16]: 0.000109 s⁻¹
kon [16]: 1.06e+06 M⁻¹ s⁻¹
Kd [17]: 0.116 nM
koff [17]: 0.000116 s⁻¹
kon [17]: 1e+06 M⁻¹ s⁻¹
Kd [18]: 0.104 nM
koff [18]: 0.000107 s⁻¹
kon [18]: 1.02e+06 M⁻¹ s⁻¹
Kd [19]: 0.109 nM
koff [19]: 0.000112 s⁻¹
kon [19]: 1.03e+06 M⁻¹ s⁻¹
Kd [20]: 0.105 nM
koff [20]: 0.000106 s⁻¹
kon [20]: 1.01e+06 M⁻¹ s⁻¹
Kd [21]: 0.0937 nM
koff [21]: 9.29e-05 s⁻¹
kon [21]: 991000 M⁻¹ s⁻¹

B8: 3A5.482 (antibody, human IgG4 S228P, lambda, name in Kabat numbering, V domains shown)
VH: QVQLQESGPGLVKPSQTLSLTCTVSGGSISNGGYYWSWIRQHPGKGLEWIGYIYYSGSTYYNPSLKSRVTISVDTSKNQFSLKLSSVTAADTAVYYCLSLGNWFDYWGQGTLVTVSS
VL: SYVLTQPPSVSVAPGQTARITCGGNNIGSKNVYWYQQKPGQAPVLVVHDDSDRPSGIPERFSGSNSGNTATLTISRVEVGDEADYSCQVWDSSSDHVVFGGGTKLTVLG
% 3A5.040 kd [4]: 52%
Kd [4]: 0.79 nM

B11: 3A5.490 (antibody, human IgG4 S228P, lambda, name in Kabat numbering, V domains shown)
VH: B8 VH with L98A, S99A
VL: B8 VL
Kd [4]: 0.128 nM

B13: 3A5.481 (antibody, human IgG4 S228P, lambda, name in Kabat numbering, V domains shown)
VH: B8 VH with L98S
VL: B8 VL
% 3A5.040 kd [4]: 112%
Kd [4]: 0.13 nM

B15: 3A5.491 (antibody, human IgG4 S228P, lambda, name in Kabat numbering, V domains shown)
VH: B8 VH with L98A, S99L
VL: B8 VL
% 3A5.040 kd [4]: 13%
Kd [4]: 1.52 nM

B16: 3A5.485 (antibody, human IgG4 S228P, lambda, name in Kabat numbering, V domains shown)
VH: B8 VH with L98Q
VL: B8 VL
% 3A5.040 kd [4]: 105%
Kd [4]: 0.154 nM

The remaining lines, values ahead:

% 3A5.040 kd [22]: 85%
Kd [22]: 0.263 nM
B6: 3A5.498 (antibody, human IgG4 S228P, lambda, name in Kabat numbering, V domains shown)
VH: B8 VH with L98A, S99P
VL: B8 VL

% 3A5.040 kd [4]: 16%
Kd [4]: 0.945 nM
B7: 3A5.494 (antibody, human IgG4 S228P, lambda, name in Kabat numbering, V domains shown)
VH: B8 VH with L98A, S99Q
VL: B8 VL

% 3A5.040 kd [4]: 2%
Kd [4]: 2.11 nM
B9: 3A5.496 (antibody, human IgG4 S228P, lambda, name in Kabat numbering, V domains shown)
VH: B8 VH with L98A, S99H
VL: B8 VL

% 3A5.040 kd [4]: 10%
Kd [4]: 3.37 nM
B10: 3A5.492 (antibody, human IgG4 S228P, lambda, name in Kabat numbering, V domains shown)
VH: B8 VH with L98A, S99Y
VL: B8 VL

% 3A5.040 kd [22]: 3%
Kd [22]: 1.75 nM
B12: 3A5.497 (antibody, human IgG4 S228P, lambda, name in Kabat numbering, V domains shown)
VH: B8 VH with L98A, S99W
VL: B8 VL

% 3A5.040 kd [22]: 34%
Kd [22]: 0.431 nM
B14: 3A5.495 (antibody, human IgG4 S228P, lambda, name in Kabat numbering, V domains shown)
VH: B8 VH with L98A, S99K
VL: B8 VL

Source: US20180186873A1 (CEPHALON, published 2018)
